# Reference: publication PMC5714209 (Nucleic Acids Research, 2017)
# Biological target: the molecule itself
# Test: SEC
protein,measurement,value
full-length APOBEC3B (enzyme) not shown,stoichiometry N,4
